From patent US20180030137A1 (ADURO BIOTECH HOLDINGS EUROPE B V, published 2018) come the findings set out here.

As usually defined, the EC50 is the concentration needed to bring the measured effect to its halfway point. Read a high EC50 as weaker potency. The term IC50 denotes the concentration needed to halve the response being measured. Higher therefore signals lower potency. Usually Kd stands for the free concentration of one partner at which half of the binding sites on the other are occupied at equilibrium, for simple one-to-one binding. Low readings indicate tighter binding, high ones weaker binding. By koff is commonly meant the first-order rate constant of dissociation. In general, kon refers to the rate constant with which the complex forms. Read a low kon as slower complex formation.

In assay [1] the target is T1, Human PD-1 (Swiss-Prot entry Q15116), full length, on cells (human, UniProt Q15116 21-288).
T1 construct: Full length open reading frame of hPD-1 stably expressed on CHO-K1 cells; also endogenous PD-1 on CD3/CD28-stimulated human CD3+ T cells and PD-1 on transfected Jurkat cells; also called hPD-1; hPDCD1
Put plainly: CELISA on CHO-K1.hPDCD1 cells. How it is done: (§1) To further characterize these mutant hPD-1 antibodies they were tested for binding to hPD-1 in CELISA format using CHO-K1 cells (American Type Culture Collection, Manassas, Va.), stably transfected with cDNA encoding the full length open reading frame of hPDCD1 (hPD-1), subcloned into the pCI-neo vector (Promega). Parental CHO-K1 or CHO-K1.hPDCD1 cells were seeded in culture medium (DMEM-F12 (Gibco) with 10% Fetal Bovine Serum (Hyclone) and Pen/Strep (Gibco)) in tissue culture plates and incubated for 48 hours at 37° C. Subsequently culture medium was removed and cells were incubated for 1 hour at 37° C. with the mutant hPD-1 antibodies (10 μg/ml (=66 nM) and dilutions thereof). Next, cells were washed with Phosphate-Buffered Saline/0.05% Tween (PBST) and incubated for 1 hour at 37° C. with Goat-anti-human IgG-HRP (Southern Biotech). Subsequently, cells were washed 3 times with PBST and anti-hPD1 immunoreactivity was visualized with 100 al TMB Stabilized Chromagen (Invitrogen). Reactions were stopped with 100 al 0.5 M H2SO4 and absorbances were read at 450 and 610 nm. […] Blockade of hPD-L1 binding by the mutant hPD-1 antibodies was tested in CELISA format. […] Reactions were stopped with 100 al 0.5 M H2SO4 and absorbances were read at 450 and 610 nm. Calculated IC50 values in Table 12 for the blockade of hPD-L1 represent the concentration at which half of the inhibition is observed.

Assay [2] deals with T1, Human PD-1 (Swiss-Prot entry Q15116), …. Put plainly: cell-based or functional assay.
Assay [3] has the same target. Description: CELISA on CHO-K1.hPDCD1 cells; blocking of biotinylated hPD-L1 Fc. The procedure:
as §1

Assay [4] has the same target. Put plainly: CELISA on CHO-K1.hPDCD1 cells; blocking of biotinylated hPD-L2 Fc. The procedure:
Parental CHO-K1 or CHO-K1.hPDCD1 cells were seeded in tissue culture plates and incubated for 72 hours at 37° C. in culture medium. […] Cells were then washed three times with PBST followed by addition of Streptavidin-HRP conjugate on the cells, which was incubated for 1 hour at 37° C. […] Reactions were stopped with 100 al 0.5 M H₂SO₄ and absorbances were read at 450 and 610 nm. […] Calculated IC50 values represent the concentration at which half of the inhibition is observed.

Assay [5] deals with T2, hPD-1/Fc fusion protein (R&D Systems) (human, UniProt Q15116 25-167).
T2 construct: Bought reagent; also called Recombinant hPD-1/Fc; not shown: Fc part of the bought fusion protein
Description: BLI (Octet RED96), hPD-1/Fc amine-coupled, IgG in solution, 1:1 global fit. How it is done: This assay was, performed by coupling hPD-1/Fc fusion protein (R&D Systems) to amine-reactive second generation biosensors (Fortebio) using standard amine chemistry. […] Amine-reactive biosensors were pre-wet by immersing them in wells containing 0.1M MES pH=5.5 for 10 minutes. The biosensors were then activated using a 0.1M NHS/0.4M EDC mixture for 5 minutes. hPD-1/Fc fusion protein was coupled by immersing the biosensors in a solution of 12 ug/mL hPD-1/Fc in 0.1 M MES for 7.5 minutes. The biosensor surface was quenched using a solution of 1M ethanolamine for 5 minutes. Biosensors were equilibrated in Octet kinetics buffer (ForteBio) for 5 minutes. […] Dissociation was measured after transfer of the biosensors into kinetics buffer and monitoring of the interferometry signal for 45 minutes. The assay was run with a plate temperature of 30° C. The observed on and off rates (kobs and kd) were fit using a 1:1 binding global fit model comprising all concentrations tested, and the equilibrium binding constant KD was calculated.
A general note: In BLI a coated tip is dipped into the sample, and binding shifts an interference pattern.

Assay [6] has as its target Human PD-1 (Swiss-Prot entry Q15116), full length, on cells (human) (UniProt Q15116).
For assay [7] the target is unchanged. Description: CELISA on CHO-K1.hPDCD1 cells.
The target is the same in assay [8]. Description: CELISA on CHO-K1.hPDCD1 cells; blocking of biotinylated hPD-L1 Fc.
For assay [9] the target is unchanged. Put plainly: CELISA on CHO-K1.hPDCD1 cells; blocking of biotinylated hPD-L2 Fc.
For assay [10], the target named is T2, hPD-1/Fc fusion protein (R&D Systems). Put plainly: BLI competition: second antibody on hPD-1/Fc held by immobilised hPD1.29H5L4 (competitor: hPD1.29H5L4).

Human PD-1 (Swiss-Prot entry Q15116), full length, on cells (human), sequence (Q15116 21-288): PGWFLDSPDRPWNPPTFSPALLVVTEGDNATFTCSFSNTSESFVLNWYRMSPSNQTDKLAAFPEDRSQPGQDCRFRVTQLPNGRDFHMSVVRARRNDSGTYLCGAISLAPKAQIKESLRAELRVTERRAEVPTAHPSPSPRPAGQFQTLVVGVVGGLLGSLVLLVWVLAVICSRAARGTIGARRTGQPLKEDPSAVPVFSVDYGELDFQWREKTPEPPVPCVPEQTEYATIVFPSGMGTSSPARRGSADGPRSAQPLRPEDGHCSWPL
T1 sequence (Q15116 21-288): as above
T2 sequence (Q15116 25-167 limits assumed): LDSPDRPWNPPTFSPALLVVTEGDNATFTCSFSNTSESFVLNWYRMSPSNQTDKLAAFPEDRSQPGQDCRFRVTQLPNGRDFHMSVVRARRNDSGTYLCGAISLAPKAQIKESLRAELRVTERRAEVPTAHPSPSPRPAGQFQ

B1: 5C4 (antibody, V domains shown)
VH: QVQLVQSGAEVKKPGSSVKVSCKASGFTFTTYYISWVRQAPGQGLEYLGYINMGSGGTNYNEKFKGRVTITADKSTSTAYMELSSLRSEDTAVYYCAILGYFDYWGQGTMVTVSS
VL: DVVMTQSPLSLPVTLGQPASISCRSSQSLLDSDGQTYLYWFQQRPGQSPRRLIYLVSTLGSGVPDRFSGSGSGTDFTLKISRVEAEDVGVYYCMQLTHEPYTFGQGTKLEIK
The molecule B1 came in with an EC50 in [1] of 0.08 nM. Besides, the “IC50; NFAT-luciferase signal (RLU) of Jurkat cells expressing human PD-1, with CHO cells expressing hPD-L1” value in [2] came out at 5.79 nM. Also, the IC50 in [3] stood at 0.49 nM. In assay [4], 0.58 nM corresponded to half-maximal inhibition (IC50). Also, in assay [5], the Kd was found to be 0.014 nM, the koff amounted to 2.9e-05 s⁻¹ and the kon stood at 2.1e+06 M⁻¹ s⁻¹.

B2: H4H7798N (antibody, from another filing, human IgG4, V domains shown)
VH: EVQLLESGGVLVQPGGSLRLSCAASGFTFSNFGMTWVRQAPGKGLEWVSGISGGGRDTYFADSVKGRFTISRDNSKNTLYLQMNSLKGEDTAVYYCVKWGNIYFDYWGQGTLVTVSS
VL: DIQMTQSPSSLSASVGDSITITCRASLSINTFLNWYQQKPGKAPNLLIYAASSLHGGVPSRFSGSGSGTDFTLTIRTLQPEDFATYYCQQSSNTPFTFGPGTVVDFRR
B2: the IC50; NFAT-luciferase signal (RLU) of Jurkat cells expressing human PD-1, with CHO cells expressing hPD-L1 in [6] stood at 7.27 nM. The EC50 in assay [7] is 0.1 nM. Moreover, in assay [8], the IC50 was 0.45 nM. Also, the IC50 in [9] worked out at 0.57 nM. Also, in assay [5], the Kd is 0.011 nM, the koff turned out to be 1.2e-05 s⁻¹ and the kon was 1.1e+06 M⁻¹ s⁻¹. The molecule further registered a Binding (nm) in [10] of 0.014 nm.
